From patent publication US20060191037, “Plant transcription factor that is involved in sugar signalling” (published 2006)

Tests used:
Conditions in all cases: tags: N-terminal His-tag (pET-15b, E. coli BL21(DE3))
[1] = target: T1, SUSIBA2 (WRKY transcription factor; purified fraction with 70 and 68 kDa forms) (Hordeum vulgare, UniProt Q6VWJ6 Q6VWJ6:1-573); assay: EMSA; strong binding
Excerpt: (§1) The 822-bp long SphI/HaeII fragment, encompassing SP8a and flanking sequences, as well as the 437-bp long BspHI/HaeII fragment, containing SP8a and downstream flanking sequence, formed prominent DNA-protein complexes with the purified SUSIBA2 fraction. Much to our surprise, however, the 510-bp long SphI/BsaI fragment, containing SP8a and upstream flanking sequence, bound only very poorly to SUSIBA2. We concluded that, in fact, the target for SUSIBA2 in the iso1 promoter is not SP8a but one or more sites downstream of the SP8a element. […] To follow up on this observation, we carried out EMSAs with oligonucleotides consisting of the iso1 SURE sequence.
(§2) EMSAs were carried out essentially as described by Sun et al. (1999). The competitor probes were prepared by annealing different non-labeled oligonucleotides in 14 mM Tris-HCl (pH 8.0), 7 mM MgCl₂.

[2] = target: T1, SUSIBA2 (WRKY transcription factor; …); assay: EMSA; two complexes, attributed to 70 and 68 kDa forms
[3] = target: T1, SUSIBA2 (WRKY transcription factor; …); assay: EMSA; binding negligible
Excerpt: as §1, §2

T1 sequence (Q6VWJ6 whole entry, the tested form may be a part, one chain of several): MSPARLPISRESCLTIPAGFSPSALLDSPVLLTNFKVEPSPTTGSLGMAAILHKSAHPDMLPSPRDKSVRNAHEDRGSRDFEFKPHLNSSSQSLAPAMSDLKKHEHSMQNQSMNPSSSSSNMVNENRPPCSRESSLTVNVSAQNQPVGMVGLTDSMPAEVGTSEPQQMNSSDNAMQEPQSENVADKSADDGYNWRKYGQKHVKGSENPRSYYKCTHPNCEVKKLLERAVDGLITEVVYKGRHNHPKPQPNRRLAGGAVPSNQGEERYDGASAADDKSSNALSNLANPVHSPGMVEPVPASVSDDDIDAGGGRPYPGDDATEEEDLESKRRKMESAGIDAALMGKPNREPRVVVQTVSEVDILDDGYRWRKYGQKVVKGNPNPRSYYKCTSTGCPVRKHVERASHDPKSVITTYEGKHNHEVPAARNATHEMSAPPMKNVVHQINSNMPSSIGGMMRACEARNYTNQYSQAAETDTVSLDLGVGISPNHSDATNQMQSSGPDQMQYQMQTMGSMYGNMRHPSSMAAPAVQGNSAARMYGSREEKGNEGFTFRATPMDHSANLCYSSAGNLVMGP

B1: iso1 SURE (SURE-b) oligonucleotide (dsDNA)
DNA 1: GGAAAACCGAAATACCAAAAAATAATAATAAAATAATAAT
DNA 2: ATTATTATTTTATTATTATTTTTTGGTATTTCGGTTTTCC
Q: Does B1 bind [1]?
A: binds

B2: iso1 W box oligonucleotide (dsDNA)
DNA 1: TCGCTAACCAGTGACTTCCACGTTTCATCATTTATT
DNA 2: AATAAATGATGAAACGTGGAAGTCACTGGTTAGCGA
Q: Does B2 bind [2]?
A: binds

B3: iso1 SP8a oligonucleotide (dsDNA)
DNA 1: CCCTCGTGGAAGCAAAACTGTGTTTCTCGC
DNA 2: GCGAGAAACACAGTTTTGCTTCCACGAGGG
Q: Does B3 bind [3]?
A: no binding
